Patent publication US20130171152A1 (published 2013)
Where two headings read alike, the source gives them in different places.

Experiments:
[1] = target: Homo sapiens MUC16 (GenBank NP-078966)
[2] = target: Homo sapiens MUC16 (GenBank NP-078966); remark: listed apart in the source

B1: 4A5.37 (antibody, V domains shown)
VH: VKLEESGGGFVKPGGSLKISCAASGFTFRNYAMSWVRLSPEMRLEWVATISSAGGYIFYSDSVQGRFTISRDNAKNTLHLQMGSLRSGDTAMYYCARQGFGNYGDYYAMDYWGQGTTVTVSS
VL: DIELTQSPSSLAVSAGEKVTMSCKSSQSLLNSRTRKNQLAWYQQKTGQSPELLIYWASTRQSGVPDRFTGSGSGTDFTLTISSVQAEDLAVYYCQQSYNLLTFGPGTKLEIKR
[1]
  Kd: 7.3 nM

B2: 4H11.2.5 (antibody, V domains shown)
VH: VKLQESGGGFVKPGGSLKVSCAASGFTFSSYAMSWVRLSPEMRLEWVATISSAGGYIFYSDSVQGRFTISRDNAKNTLHLQMGSLRSGDTAMYYCARQGFGNYGDYYAMDYWGQGTTVTVSS
VL: DIELTQSPSSLAVSAGEKVTMSCKSSQSLLNSRTRKNQLAWYQQKPGQSPELLIYWASTRQSGVPDRFTGSGSGTDFTLTISSVQAEDLAVYYCQQSYNLLTFGPGTKLEVKR
[2]
  Kd: 6.8 nM
